The values that follow come from patent publication US20250387450A1 (AIKIUM, published 2025).

Where a chain is given by its changes, count along the chain named. Where only a bound is given, the exact number is not on record here.

Assay [1] concerns the target T1, CD74 disordered region peptide (CLIP), PPKPVSKMRMATPLLMQALPMGALP (biotin label).
T1 construct: also called CD74 Peptide
T1 peptide: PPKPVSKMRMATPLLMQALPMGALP
Put plainly: modified sandwich ELISA, fluorescence grade by the table's key. The method, then: (§1) Binder proteins were coated on the surface of a high binding capacity 96 well plate by incubating 100 μL of protein at 5 μg/mL in a coating solution (10 mM Tris pH 8.8, 50 mM NaCl), overnight at 4 C. The next morning, the coating solution was aspirated out and wells were washed once with 300 μL ELISA wash buffer (1×PBS, 0.05% Tween-20) and solution was aspirated out. The wells were blocked with 200 μL of a blocking buffer (1×PBS, 0.05% Tween-20, 3% BSA) at room temperature for 1 hour. After one hour, the blocking solution was aspirated out and 100 μL of biotinylated polypeptide in a binding buffer (1×PBS, 0.05% Tween-20, 0.5% BSA) at various concentrations was added to the appropriate well and incubated for 20 minutes. Peptide solution was aspirated out after 20 minutes and wells were washed 5 times with 300 μL of ELISA wash buffer. To detect the biotinylated peptide, 100 μL of streptavidin-HRP (50 ng/ml) was added to each well and incubated for 1 hour. The wells were subsequently washed 5 times with 300 μL of ELISA wash buffer. 100 μL of QuantaBlu Fluorogenic Peroxidase substrate solution was added to each well, incubated for 30 minutes and reaction stopped by adding 100 μL of stop solution. Fluorescent signal from each well was measured using a Biotek Cytation5 plate reader by exciting the fluorophore at […] and measuring emission at 420 nm. Fluorescent signals were plotted as a function of polypeptide concentration.
Background: ELISA stands for enzyme-linked immunosorbent assay.

The target in assay [2] is T2, CYSLTR2 N-terminal disordered region peptide, MERKFMSLQPSISVSEMEPNGTFSNNNSRNCTIENFKREFFP (biotin label).
T2 construct: also called CysLT2; CysLT2r
T2 peptide: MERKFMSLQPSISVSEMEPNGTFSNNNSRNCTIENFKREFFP
The assay is described as follows: ELISA: scaffold coated on plate, biotinylated peptide titrated, streptavidin-HRP fluorescence. The method, then:
as §1

In assay [3] the target is T3, KAAG1 disordered region peptide, PGAAAAHLPRWPPPQLAASRREA (biotin label).
T3 construct: also called KAAG1 Peptide
T3 peptide: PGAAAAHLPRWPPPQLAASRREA
The description is as above. Here is the method:
as §1

The target in assay [4] is T4, CD40LG short linear epitope peptide, NKEETKKENSFEMQKGDQNPQIAAH (biotin label).
T4 construct: also called CD40LG Peptide
T4 peptide: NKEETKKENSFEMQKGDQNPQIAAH
The assay is described as above. The method, then:
as §1

Assay [5] addresses T5, CYSLTR2 short linear epitope peptide, SISVSEMEPNGTFSNNNSRNC (N-terminal biotin).
T5 peptide: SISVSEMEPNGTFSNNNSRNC
The description is as above. The method, then:
as §1

For assay [6], the target named is T6, TNFRSF13B disordered region peptide, LPPELRRQRSGEVENNSDNSGRYQ (biotin label).
T6 construct: also called TNFRSF13B Peptide
T6 peptide: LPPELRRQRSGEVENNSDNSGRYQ
The assay is described as above. Here is the method:
as §1

The target in assay [7] is T7, KCNA6 short linear epitope peptide, QQQEQQPASGGGGQNGQQAMS (biotin label).
T7 construct: also called KCNA6 Peptide
T7 peptide: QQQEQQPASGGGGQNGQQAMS
The assay is described as above. The method, then:
as §1

For assay [8], the target named is T8, GMERKFMSLQPSISVSEMEPNGTFSNNNSRNCTIENFKREFFP (biotinylated, position not given).
T8 construct: also called CYSLTR2 (longer peptide of the disordered region)
T8 peptide: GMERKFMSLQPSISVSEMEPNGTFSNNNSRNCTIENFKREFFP
The description is as above. Here is the method:
as §1

For assay [9], the target named is T9, CRACM disordered region polypeptide.
T9 construct: domain: disordered region
The assay is described as follows: modified sandwich ELISA, fluorescence grade by the table's key. The method, then: as §1

Assay [10] has as its target T2, CYSLTR2 N-terminal disordered region …. Described as above. The method, then:
as §1

Assay [11] addresses T10, Urotensin-2 receptor N-terminal peptide, MALTPESPSSFPGLAATGSSVPEPPGGPNATLNSSWASPTEPSSLEDLVATGTI (biotin label).
T10 construct: also called Urotensin IIR; GPCR2 (Urotensin II)
T10 peptide: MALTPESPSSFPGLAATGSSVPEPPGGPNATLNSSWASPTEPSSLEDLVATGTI
Put plainly: modified sandwich ELISA, grade by the table's key. The method, then:
as §1

Assay [12] deals with T6, TNFRSF13B disordered region peptide, …. Put plainly: modified sandwich ELISA, grade by the table's key. Here is the method:
as §1

Assay [13] has as its target T1, CD74 disordered region peptide (CLIP), …. The assay is described as follows: ELISA: scaffold coated on plate, biotinylated peptide titrated, streptavidin-HRP fluorescence. Here is the method: as §1
Assay [14] has as its target T11, 25 amino acid epitope of CLIP (CD74).
T11 construct: also called CLIP Peptide
The assay is described as follows: BLI (Octet RED), biotinylated peptide on streptavidin sensor. On the technique in general: BLI is a label-free optical method that tracks binding on a fibre tip over time.
Method: Streptavidin sensor tips for the BLI instrument were equilibrated in an equilibration buffer (1×PBS, 0.05% Tween 20, 0.5% BSA) for 5 minutes. Biotinylated polypeptide in the equilibration buffer at 0.5 μM was loaded on the streptavidin sensor over 60 s. After substrate loading, the sensor tips were washed in the equilibrating buffer for 5 minutes to block non-specific binding and to obtain a baseline reading. Peptide loaded and blocked tips were then introduced into wells containing polypeptides in the equilibrating buffer at varying concentrations. The binding and dissociation data are fit using the OCTET software to obtain kₒₙ, koff and consequently KD, the binding affinity.

Assay [15] concerns the target T2, CYSLTR2 N-terminal disordered region …. The assay is described as follows: ELISA, fluorescence at 10000 nM peptide divided by the no-scaffold control. The method, then:
as §1

Assay [16] addresses T5, CYSLTR2 short linear epitope peptide, …. The assay is described as follows: ELISA: scaffold coated on plate, N-terminally biotinylated peptide titrated, streptavidin-HRP fluorescence. Here is the method: as §1
The next assay deals with T12, MERKFMSLQPSISVSEMEPNG (N-terminal biotin).
T12 construct: also called CYSLTR2 N-terminal 21-mer peptide
T12 peptide: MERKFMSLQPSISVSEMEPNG
The assay is described as above. Here is the method:
as §1

Assay [17] deals with T3, KAAG1 disordered region peptide, …. Put plainly: modified sandwich ELISA, fluorescence grade by the table's key. The method, then: as §1
The target in assay [18] is T2, CYSLTR2 N-terminal disordered region …. The assay is described as follows: modified sandwich ELISA (FIGS. 30A, 30B). The method, then:
as §1, with “Fluorescent signals were plotted as a function of polypeptide concentration.” left out

B1: engineered scaffold protein S164 (designed binder)
chain: GIKEEHSIRQNEKYNNPDQSGNFEFHLDGQPIFRVDMQKKRTKWQLEEFGRFASFEAQGALANIAVFKINLEIMTKRSNQSEAGSHSWQLNFTCEFHEGTESVRLSERSYYNQENFVSFNSDVGEYRATTELGRPMAEYVNSQKDTLEQRRAAVDTYCRHNYGVGEYFTVQRR
Consider B1, for which the fluorescent signal in [1] was > 400000 fluorescentsignal. Also, the binding result in assay [2] and in [3] was “no binding (tested: 10000 nM)” each time.

B2: engineered scaffold protein S194 (designed binder)
chain: MGIKEEHVINQAEYYLNPDQSGEFKFDFDGDEIFHVDMAKKETVWRLEEFGRFASFEAQGALAHIAVDKANLEIMTKRSNYTPMGGGSKARMATGALAQAGGSGGSGDTRPRFLWQLKYECHFFNGTERVRLNERCIYNQEESVRFDSDVGEYRAVTELGRPDAEQWNSQKDHLEQRRAAVDTKCRHNYGVGESFTVQGGSHHHHHH
Regarding B2, the binding result was “no binding (tested: 10000 nM)” in assay [4]; “binds” in [5]; “no binding (tested: 10000 nM)” in assay [6]; “no binding (tested: 10000 nM)” in assay [7]; “binds” in assay [8]; “no binding (tested: 10000 nM)” in assay [3].

B3: engineered scaffold protein S005 (designed binder)
chain: MIKEEHVIIQAEFYLNPDQSGEFMFDFDGDEIFHVDMAKKETVWRLEEFGRFASFEAQGALANIAVDKANLEIMTKRSNYTPMGDTRPRFLWQLKFECHFFNGTERVRLLERCIYNQEESVRFDSDVGEYRAVTELGRPDAEYWNSQKDLLEQRRAAVDTYCRHNYGVGESFTVQGGSHHHHHHLE
notes: Derived from MHC II; also called scaffold v1.1; v1.1
With B3, the figures for the fluorescent signal in [9], in assay [10] and in [1] were 100000 to 250000 fluorescentsignal, 100000 to 250000 fluorescentsignal and > 400000 fluorescentsignal, respectively. The binding result is reported as “no binding (tested: <5000 (fluorescence, key))” in assay [11]; “no binding (tested: <5000 (fluorescence, key))” in assay [12]; “binds” in assay [5]. The “EC50 (read off the curve)” value in [13] was ~300 nM. This molecule yielded a Kd in assay [14] of 840 nM. In addition, in assay [15], the “Fold Change (Relative Binding)” value is 18.5 x. In addition, the “Relative Binding (signal over the no-scaffold control)” value in assay [15] came out at 18.5 x.

B4: engineered scaffold protein S177 (designed binder)
chain: B3 chain with I9N, F13Y, M24K, N63H, F96Y, L110N, Y143Q, L150H, Y161K
In turn, B4 showed a fluorescent signal in assay [10] of 100000 to 250000 fluorescentsignal. The binding result in assay [16] was “binds”; in the assay with MERKFMSLQPSISVSEMEPNG it was “no binding (tested: 10000 nM)”; in assay [4], “no binding (tested: 10000 nM)”; in [6], “no binding (tested: 10000 nM)”; in [7] it was “no binding (tested: 10000 nM)”; in [8] it was “binds”. The binding result in [3] is given as “no binding (tested: 10000 nM)”.

B5: engineered scaffold protein S055 (designed binder)
chain: GSHSMRYNYTSVSRPGRGEPRFLSEGHVDDTQFVRFDSDAASPREEPRAPWIEQEGPEYWDRNTQIYKAQAQTDRESLRNLRGYYNQSEAGSHTLQSIYGCDVGPDGRLLRGHDQYYYDGKDYISLNEDLRSWTAADTAAQITQRKWEAAREAEQRRAYLEGECVEWLRRYLENGKDKLERADGGSHHHHHHLE
Turning to B5, the fluorescent signal is > 400000 fluorescentsignal in assay [1] and 50000 to 100000 fluorescentsignal in assay [17].

B6: engineered scaffold protein S056 (designed binder)
chain: B5 chain with D30G, T31Q, Q32P, S92L, T94S, Q96N, G100V, Q115H, K121E, D122L
In the case of B6, the fluorescent signal in assay [1] was > 400000 fluorescentsignal; in assay [17], 50000 to 100000 fluorescentsignal.

B7: engineered scaffold protein S090 (designed binder)
chain: IKEEHSIRQNEMYLNPDQSGLFEFHLDGQPIFRVDMQKKRTKWQLEEFGRFASFEAQGALANIAVDKANLEIMTKRSNQSEAGSHSWQLIFVCEFHEGTESVRLSERCYYNQELSVSFNSDVGEYRAVTELGRPDAEYWNSQKDLLEQRRAAVDTYCRHNYGVGESFTVQRRGGSHHHHHHLE
notes: also called scaffold v1.2; v1.2
As to B7, the “fold higher affinity compared to a non-specific protein binder” value in [18] is > 65 fold. For the same molecule, the fluorescent signal in [10] is 250000 to 400000 fluorescentsignal; in assay [1], > 400000 fluorescentsignal; in assay [17] it was 250000 to 400000 fluorescentsignal. Moreover, the binding result in assay [16] is given as “binds”; with MERKFMSLQPSISVSEMEPNG it was “no binding (tested: 10000 nM)”; in [12], “no binding (tested: <5000 (fluorescence, key))”. Moreover, the “EC50 (read off the curve)” value in [13] is ~500 nM. In addition, in [15], the “Fold Change (Relative Binding)” value amounted to 37.2 x. Also, in assay [15], the “Relative Binding (signal over the no-scaffold control)” value was 37.2 x.

B8: engineered scaffold protein S171 (designed binder)
chain: GDTRPRFLWQLKWECHFYNGTERVRLNERCNYNQEESVRFDSDVGEYRAVTELGRPDAEFSNSQKDNLEQRRAAVDTLCRHNYGVGESFTVQRRSGGGIKEEHVINQAEYYLNPDQSGEFKFDFDGDEIFHVDMAKKETVWRLEEFGRFAIIEAYGALANIAVDKANLEIMTKQSNYT
Turning to B8, in [1], the fluorescent signal was > 400000 fluorescentsignal. Moreover, the binding result in [2] and in assay [3] was “no binding (tested: 10000 nM)” in each case.

A word on the EC50 (read off the curve): it is the concentration at which the effect is half-maximal. By Kd is commonly meant the concentration at which binding is half-saturated.
